A short description of this data set: soluble on expression in E. coli; label from the status in PepcDB or PDB records.
For “MVKTAVLMATYNGEIFISEQLDSIRQQTLKPDYVLLRDDCSTDETVNVVNNYIAKHELEGWKIVKNDKNLGWRLNFRQLLIDVLAYEVDYVFFSDQDDIWYLDKNERQFAIMSDKPQIEVLSADVDIKTMSTEASVPHFLTFSSSDRISQYPKVYDYQTFRPGWTIAMKRDFAQAIADNWTFGANISHDNLIETTASIIGNGYNLNESVGVHIRYGGNASGNSKFVLNWKSPKTQHITGLKTFVDFYETMQKVVNKYQNDVALNQRLAFEKERLEASKLSLIHNSAFVIKNWRLYNSNSGRMRDLLFAFKKLEHHHHHH”, the “soluble on expression in E. coli” value is reported as “soluble”.

For the sequence “MVKVYGSTVDNESRCTHYQTPLDIIAIKFKCCNKYYPCYKCHNEHESHKIQRWQANEFHEKAILCGVCNHEMTINDYMMIEACPKCDAHFNNRCKYHYHLYFEILEHHHHHH”, the “soluble on expression in E. coli” value is on record as “soluble”.

Turning to “MVKWQATLSTTEPYNYIGIQNVRQGNRNTEVLEAILVENALPLDLTGCEVFFESVIDNKYPIQRAAKIVNAKKGIIQYTFDEYSMQSLHRQEAYFSIHKGDNLIGSTQNFSYFVVNAASKTEGEMGSYWQSIEDLIADMTAFINENKGDFTAWMNARKEEFEKWRKNQQDTFEAWRNGQETDYLKWFESIKDILKTIDPGGTMLAELMDARVDIQGVRHNSLSERLLADMNYLYHRLEERLYTIKYGNVNTLEILEDDSFSKNHEVEVLGTVNHPIEEGALIIATVDDSKQNVFTIEGVDNG”, the “soluble on expression in E. coli” value is listed as “not soluble”.

Turning to “MVLGLASFPESLSSQSETATQPRRPSVKWDLGSDYRKGTEETTASGSNFRRERLDSQPDLGLHVQPQIYFLRPRSPLPKLLFSLMNTNDANVKKLLPKSHLSRVIIRDNLNAQRICEMEMKASDKTKRKMSYLYDHLKKKFMMDQLRKMIRWRRDSQSTQDYLDKERV”, the “soluble on expression in E. coli” value was “not soluble”.

On to “MVLLSFDIEEFDVPLEQGYKDFPSEEQLRISRQGTEAILHILRKKGVRSTFFSTVTFWESLPEDLRKGIYTDGHELASHGVFHSSFSKEHLAESRQKLASLWDGTDVCGFRMPRMMPVGDAEIAEAGYLYNSSLNPTCIPGRYNHLSAPRLPYFDKYGVLQMPSSVTPLLRFPLFWLSLHHLPLRLYIRMIRHTVRRDNYLNLYFHPWEFAEISCLPDCKLSYTVTHNSGEKMCRRLEAVIDTLLADGCSFGTFSDYYRFQKQG”, for which the “soluble on expression in E. coli” value is “not soluble”.

As to “MVLVVGSGAGGATLARELAIRGIDVTVIERGPCVKDSDAFLCYDEAPDVDILRTSCAGGSTLVAAGNAVRVLENTLKDYGVDITEDLHAIEAELRVRELPDTHTGRGTALIMDAAESLGLGVKKMPKFIDPDKCRPCGKCSFGCPRAAKWSARRFLDEAVEHGAVLIEETEAKNIIVRNGSVSGLRTSRGDFHDETVVLAAGAIETPRILMRAGIDAGNGLFMDTFVTVGGILEGVGFCDEVQMNALIELDGVILSPHFSTLLFPEDDRRNVLGIMVKIADERSGRVEADRIVKHHTVRDISLLSGGAAIAGSILSRAGVGAGTLRSTRPRGAHPGGTASLGEVVDENLETSIEGLFVADASVLPAAPGAPPILTIMALARRLARHIVSVLLEHHHHHH”, the “soluble on expression in E. coli” value is on record as “not soluble”.

With “MVMETESKFHVLAVDDSLFDRKMIERLLQKSSCQVTTVDSGSKALEFLGLRVDDNDPNALSTSPQIHQEVEINLIITDYCMPGMTGYDLLKKVKESAAFRSIPVVIMSSENVPARISRCLEEGAEEFFLKPVKLADLTKLKPHMMKTKLKKESEKPVAIEEIVVSKPEIEEEEEESSVIEILPLHQEIESEQLEPMLSSNKRKAMEEVVSTDRSRPKYNDITTSV”, the “soluble on expression in E. coli” value is on record as “not soluble”.

For the sequence “MVMIISTMEPQVSNGPTSNTSNGPSSNNRNCPSPMQTGATTDDSKTNLIVNYLPQNMTQEEFRSLFGSIGEIESCKLVRDKITGQSLGYGFVNYIDPKDAEKAINTLNGLRLQTKTIKVSYARPSSASIRDANLYVSGLPKTMTQKELEQLFSQYGRIITSRILVGQVTGVSRGVGFIRFDKRIEAEEAIKGLNGQKPSGATEPITVKFANNPSQKSSQALLSQLYQSPNRRYPGPLHHQAQRFRLDNLLNMAYGVKRFSPITIDGMTSLVGMNIPGHTGTGWCIFVYNLSPDSDESVLWQLFGPFGAVNNVKVIRDFNTNKCKGFGFVTMTNYDEAAMAITSLNGYRLGDRVLQVSFKTNKAHKS”, the “soluble on expression in E. coli” value is on record as “soluble”.

Turning to “MVNAIRTPDQRFSNLDQYPFSPNYLDDLPGYPGLRAHYLDEGNSDAEDVFLCLHGEPTWSYLYRKMIPVFAESGARVIAPDFFGFGKSDKPVDEEDYTFEFHRNFLLALIERLDLRNITLVVQDWGGFLGLTLPMADPSRFKRLIIMNACLMTDPVTQPAFSAFVTQPADGFTAYKYDLVTPSDLRLDQFMKRWAPTLTEAEASAYAAPFPDTSYQAGVRKFPKMVAQRDQACIDISTEAISFWQNDWNGQTFMAIGMKDKLLGPDVMYPMKALINGCPEPLEIADAGHFVQEFGEQVAREALKHFAETE”, the “soluble on expression in E. coli” value was “soluble”.

For the sequence “MVNFVAKDIYTKDSIQRGGQDVIIEKHEIQIDQITSGKVNIFTFYRNRKQIDDHFLRLQEPSLTANYFFHFHFDAESLHLLQKEFPSVYPYDGSETIHDWTEKMKAELQHQIQTGKWNKRVRIGNRILDVVFTWCDEDIVE”, the “soluble on expression in E. coli” value was “not soluble”.

“MVNSKVLNTLEYQQVKQQLAPYLVSATGQQALNELHPMTSVADIQRALDETNDGAEVYRLKGGIPVARLADIKPHMKRLAIGATLNGSELGQVGRVLRTTRAITRFFAELLEDAPELEHHHHHH”: the “soluble on expression in E. coli” value is on record as “not soluble”.

For “MVNTIGFDREKYIEMQSQHIRERREALGGKLYLEMGGKLFDDMHASRVLPGFTPDNKIAMLDRIKDEVEILVCINAKDLERHKIRADLGISYEEDVLRLVDVFRDRGFLVEHVVLTQLENDNRLALAFIERLQRLGIKVSRHRVIPGYPTDMDRIVSDEGFGLNEYAETTRDLVVVTAPGPGSGKLATCLSQVYHEHKRGVAAGYAKFETFPIWNLPLEHPVNLAYEAATVDLNDANVIDHFHLAAYGEQTVNYNRDVEAFPLLKTLLERLMGESPYQSPTDMGVNMAGNCISDDAACRHASEQEIIRRYFKALVEEARTGKDSTQSDRAAVVMAKAGIKASQRVVVEPARQVEERTSLPGCAIELVDGSIITGATSDLLGCSSSMLLNALKHLAGIDDAIHLLSPESIEPIQTLKTVHLGSSNPRLHTDEVLIALSVSAATDSNAQKALDQLKNLRGCDVHTTTILGSVDEGIFRNLGVLVTSDPKFQKNKLYQKR”, the “soluble on expression in E. coli” value was “not soluble”.

Consider “MVPPTINTGKNITTERAVLTLNGLQIKLHKVVGESRDDIVAKMKDLAMDDHKFPRLPGPNPVSIERKDFEKLKQNKYVVSEKTDGIRFMMFFTRVFGFKVCTIIDRAMTVYLLPFKNIPRVLFQGSIFDGELCVDIVEKKFAFVLFDAVVVSGVTVSQMDLASRFFAMKRSLKEFKNVPEDPAILRYKEWIPLEHPTIIKDHLKKANAIYHTDGLIIMSVDEPVIYGRNFNLFKLKPGTHHTIDFIIMSEDGTIGIFDPNLRKNVPVGKLDGYYNKGSIVECGFADGTWKYIQGRSDKNQANDRLTYEKTLLNIEENITIDELLDLFKWE”, for which the “soluble on expression in E. coli” value is listed as “soluble”.

Consider “MVQKEGVLRVITRNSPATYFQDRNGETGFEYELAKRFAERLGVELKIETADNLDDLYAQLSREGGPALAAAGLTPGREDDASVRYSHTYLDVTPQIIYRNGQQRPTRPEDLVGKRIMVLKGSSHAEQLAELKKQYPELKYEESDAVEVVDLLRMVDVGDIDLTLVDSNELAMNQVYFPNVRVAFDFGEARGLAWALPGGDDDSLMNEVNAFLDQAKKEGLLQRLKDRYYGHVDVLGYVGAYTFAQHLQQRLPRYESHFKQSGKQLDTDWRLLAAIGYQESLWQPGATSKTGVRGLMMLTNRTAQAMGVSNRLDPKQSIQGGSKYFVQIRSELPESIKEPDRSWFALAAYNIGGAHLEDARKMAEKEGLNPNKWLDVKKMLPRLAQKQWYAKTRYGYARGGETVHFVQNVRRYYDILTWVTQPLEHHHHHH”, for which the “soluble on expression in E. coli” value was “soluble”.

In the case of “MVQNNDVDGAFGLLNRLMDSEGMLKIIRRTQFYQKPYMQRKTLSMEASTAIFNEDMNRKMKFLVRKNRPDKHPGQVTS”, the “soluble on expression in E. coli” value is given as “not soluble”.

“MVQSLNTKVDLVIDATAFTGLTDYGQIMIGDRGFEFYHAKDPRKFIQIPWEEVDYVLASVMFKGKWIPRYAIQTKKNGTYTFASKEPKRVLRAIREYVDPDHMVQSLSFFDVIKRGILSIGKKKK”: the “soluble on expression in E. coli” value is given as “not soluble”.

Consider “MVQTVLNSVWLWRSVLLRLTFSDSGSFLGQSFLLFSSGFWSVLVEQLEGFSSGVSVQSVLELSNGWRNLQSDGQDLLLSLQSDIFWPFDVSGQVSLWLDSLANTEVLWSRVSQWVLSLVRLSGLSTEWSWSNFLTWSHLFFQLSCSLY”, for which the “soluble on expression in E. coli” value is “soluble”.

For “MVRGVFVGLFSKKQSVLVGVDISSTAVKLLQLSRSGNRFKVEHYAVEPLPLNAVAEKGIVEVEQVGEAIRRAVSRSGTKAKFAAAAVAGSAVITKLIPMPAGLDEQDLEAQIEIEATNYIPYPIEEVSLDFEVLGPVPNNTEMVQVLLAASRSENVELRQSALELGGLTAKVIDVEALAVENAFSLIAQELSVGSNALVALIDIGATMSTLNVLHSGRSLYAREQLFGGKQLTDEVMHRYGMTYEEAGQAKRQGGLPQSYEVEVLGPFKDSVIQQISRLLQFFYAGSEYNRVDCIVLAGGCAVIAGLPAMVEERLGVVTVVANPLAQMTLGAKVQAHTLAQDAPALMIATGLALRSFD”, the “soluble on expression in E. coli” value is recorded as “not soluble”.

For “MVRLEDYGTWDEALKRLEASRKALLALLREADPAWLSAPLREGAWTPLMVAEHVALVEDSTARVLRRLRRLAAGENLPPVPVKPGEFKDGKPQAPEGVRPKGGLSLEEVLALLDRARAFLLEEVAKADPQNPATFPHPFFGELNPLGWLRAAAYHEAHHLKALQASLPR”, the “soluble on expression in E. coli” value is given as “soluble”.

As to “MVSAGGVVLKGDPPEVLVVSLRGGRVVTLPKGQVEPGERYPETAVREVREETGVEASVLAPLGRVRYYFTVHEPEGPVTVSKEVHYFLMRHLGGTPRPQLTEVEDAFFLPASEALERLSYPNEREMLKRALLRLRARAKKG”, the “soluble on expression in E. coli” value is on record as “soluble”.

For “MVSLPVVLIADKLAPSTVAALGDQVEVRWVDGPDRDKLLAAVPEADALLVRSATTVDAEVLAAAPKLKIVARAGVGLDNVDVDAATARGVLVVNAPTSNIHSAAEHALALLLAASRQIPAADASLREHTWKRSSFSGTEIFGKTVGVVGLGRIGQLVAQRIAAFGAYVVAYDPYVSPARAAQLGIELLSLDDLLARADFISVHLPKTPETAGLIDKEALAKTKPGVIIVNAARGGLVDEAALADAITGGHVRAAGLDVFATEPCTDSPLFELAQVVVTPHLGASTAEAQDRAGTDVAESVRLALAGEFVPDAVNVGGGVVNEEVAPWLDLVRKLGVLAGVLSDELPVSLSVQVRGELAAEEVEVLRLSALRGLFSAVIEDAVTFVNAPALAAERGVTAEICKASESPNHRSVVDVRAVGADGSVVTVSGTLYGPQLSQKIVQINGRHFDLRAQGINLIIHYVDRPGALGKIGTLLGTAGVNIQAAQLSEDAEGPGATILLRLDQDVPDDVRTAIAAAVDAYKLEVVDLS”, the “soluble on expression in E. coli” value is given as “soluble”.

For “MVTKTITEQRAEVRIFAGNDPAHTATGSSGISSPTPALTPLMLDEATGKLVVWDGQKAGSAVGILVLPLEGTETALTYYKSGTFATEAIHWPESVDEHKKANAFAGSALSHAALP”, the “soluble on expression in E. coli” value is “soluble”.

Consider “MVTNKLITLLPDLATFIVVVNEGSFTAAAKKLGVTPSALSKLITRLENALSVKLFERTTRSLLITESGKKIYQQSVIMVEAAQQAVDISSSEHTVPSGSLTVAAPKAFLTIVLQPLITPFLTKYPKIQLKLRASDGDIDMIAQGIDVVFRLTDKPTEGLVMKEIGKVNLSLCASPTYLEERGIPHLPQELANHDCLFLGETTTDHIWEFVKGTESHVIAVSGRYAVNHSQMRLNGVKDGFGIGIFPDFVIKEALANNEVISVLSDWQIKGNYHGVIAMQYAQNKYIPSRLKVFTEFVKENLMKSKVNDERT”, for which the “soluble on expression in E. coli” value was “not soluble”.

For the origin of these results see the DeepSol protein solubility set.
